Positions of bridges follow the written chain, without caps; N, C: chain ends.
Key:
[1] = target: T1, sclerostin binding to LRP6 E1E2 (Homo sapiens, UniProt O75581); test: Peptide inhibition of sclerostin binding to LRP6 E1E2 (biolayer interferometry); settings: peptide 20-fold higher than IC50; ligand three-fold higher than dissociation constant
T1 construct: construct E1E2-amino acids A20-E631 of LPR6; made in house; host or cells: Tni insect cells (baculovirus, secreted)
T1 sequence (O75581 20-631): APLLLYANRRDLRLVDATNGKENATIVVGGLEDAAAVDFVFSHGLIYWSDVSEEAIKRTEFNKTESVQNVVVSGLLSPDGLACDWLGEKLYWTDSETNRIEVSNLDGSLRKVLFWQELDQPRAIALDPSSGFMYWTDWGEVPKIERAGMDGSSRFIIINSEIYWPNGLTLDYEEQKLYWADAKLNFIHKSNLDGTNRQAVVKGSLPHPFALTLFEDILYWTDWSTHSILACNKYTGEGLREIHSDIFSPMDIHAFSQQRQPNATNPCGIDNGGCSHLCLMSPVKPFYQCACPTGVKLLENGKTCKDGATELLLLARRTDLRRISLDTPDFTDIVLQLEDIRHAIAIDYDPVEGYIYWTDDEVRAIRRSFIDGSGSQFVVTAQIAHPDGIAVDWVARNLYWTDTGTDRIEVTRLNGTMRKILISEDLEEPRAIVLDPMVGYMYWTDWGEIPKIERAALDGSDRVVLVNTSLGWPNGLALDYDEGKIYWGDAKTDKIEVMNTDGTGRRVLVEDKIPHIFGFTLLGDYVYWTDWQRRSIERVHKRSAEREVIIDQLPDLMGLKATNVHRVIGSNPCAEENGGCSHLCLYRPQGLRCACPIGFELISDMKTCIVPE
Protocol: (§1) FIG. 22. […] Binding was assessed by biolayer interferometry, as described in Example 1. Immobilized LRP6 E1E2 was exposed to protein ligand (Wnt 9b, Dkk1, or sclerostin) present in solution at a concentration three-fold higher than the measured dissociation constant for E1E2. Competing peptides were added at a saturating level (20-fold higher than the measured IC50 value). Peptide A: Ac-NSNAIKN-am; Peptide B: Ac-[…]-am (disulfide); Peptide C: Ac-[…]-am (disulfide)
(§2) Binding kinetics were measured by biolayer interferometry using an Octet Red instrument (ForteBio) as previously described (11). Streptavidin (SA) biosensors were loaded with biotinylated hLRP6 in 50 mMTris, pH 8, 300 mM NaCl, 5% (v/v) glycerol, and 0.05% (w/v) Triton X-100. The loaded biosensors were washed in the same buffer before carrying out association and dissociation measurements for the indicated times. The Kd of each interaction was determined using steady state-analysis through the Octet Red software v6.3. Each reported value represents an average of three or more experiments at different concentrations, with a fitted experimental curve for which the square of the correlation coefficient (R^2) is above 0.96.
(§3) To support the conclusions from protein mutagenesis, peptides were assayed for inhibitory activity toward binding of various ligands to LRP6. Three different peptides inhibited binding of the inhibitors Dkk1 and sclerostin to LRP6 E1E2 without affecting the binding of Wnt9B (FIG. 22).

[2] = target: T2, Dkk1 binding to LRP6 E1E2 (Homo sapiens, UniProt O75581); test: Peptide inhibition of Dkk1 binding to LRP6 E1E2 (biolayer interferometry); settings: peptide 20-fold higher than IC50; ligand three-fold higher than dissociation constant
T2 construct: construct E1E2-amino acids A20-E631 of LPR6; made in house; host or cells: Tni insect cells (baculovirus, secreted)
T2 sequence (O75581 20-631): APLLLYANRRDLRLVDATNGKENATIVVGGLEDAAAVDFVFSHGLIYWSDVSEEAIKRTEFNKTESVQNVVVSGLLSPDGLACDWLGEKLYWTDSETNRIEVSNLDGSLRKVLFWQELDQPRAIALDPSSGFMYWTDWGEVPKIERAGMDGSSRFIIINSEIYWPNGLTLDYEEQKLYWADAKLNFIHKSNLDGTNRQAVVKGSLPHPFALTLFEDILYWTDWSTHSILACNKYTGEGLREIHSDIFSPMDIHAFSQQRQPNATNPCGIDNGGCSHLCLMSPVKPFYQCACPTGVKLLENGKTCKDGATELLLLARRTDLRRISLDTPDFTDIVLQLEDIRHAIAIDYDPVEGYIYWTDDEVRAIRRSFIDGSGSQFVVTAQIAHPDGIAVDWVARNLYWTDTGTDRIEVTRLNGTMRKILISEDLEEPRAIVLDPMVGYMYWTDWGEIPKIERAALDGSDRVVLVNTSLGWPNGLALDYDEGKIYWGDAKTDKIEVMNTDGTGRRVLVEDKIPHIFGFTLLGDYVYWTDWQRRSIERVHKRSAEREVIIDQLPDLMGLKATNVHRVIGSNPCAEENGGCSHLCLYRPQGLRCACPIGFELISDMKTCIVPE
Protocol: as §1, §2, §3

Ac-NSNAIKN-am (Ac-NSNAIKN-NH2) [Peptide A]
inhibition of sclerostin binding to LRP6 E1E2 [1]: inhibit binding
inhibition of Dkk1 binding to LRP6 E1E2 [2]: inhibit binding

Ac-CNSIKFCG-am (disulfide) (Ac-CNSIKFCG-NH2; disulfide 1-7 (inferred)) [Peptide B]
inhibition of sclerostin binding to LRP6 E1E2 [1]: inhibit binding
inhibition of Dkk1 binding to LRP6 E1E2 [2]: inhibit binding
